Experimental findings from US20240100159A1, “USE OF IL-7R-ALPHA-GAMMA AGONIST PEPTIDES IN CELL MANUFACTURING” (MEDIKINE, INC., priority 2022, published 2024) are described below.

The target in this experiment is T1, hu-IL-7Rα subunit (human, UniProt P16871 21-239, limits assumed).
T1 construct: also called human interleukin-7 receptor subunit α; CD127
T1 sequence (looked up): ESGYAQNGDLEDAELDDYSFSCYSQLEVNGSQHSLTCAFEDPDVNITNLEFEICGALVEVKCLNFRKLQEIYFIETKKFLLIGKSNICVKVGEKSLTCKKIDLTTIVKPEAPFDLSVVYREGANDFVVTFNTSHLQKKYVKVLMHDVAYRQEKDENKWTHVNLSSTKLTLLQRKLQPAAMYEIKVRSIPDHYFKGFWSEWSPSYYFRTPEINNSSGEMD
Description: phage ELISA competition assay. In general terms: In an ELISA, binding on a coated surface is turned into a signal by an enzyme label.

As a reminder, the IC50 is the concentration needed to halve the response being measured. Read a high IC50 as a need for much substance. Molecule SLTVPWCTLDPGSMQCAWLQNR (also called IL-7Rα ligand) [SEQ ID NO 112] registered an IC50 of less than 10 µM.
